According to the Immune Epitope Database (IEDB):

Tests used:
HLA-A*31:01 [1] = assay: IEDB peptide-MHC binding, purified MHC/competitive/fluorescence; filed as Kd, often an IC50 or EC50 that approximates it; ≥ and ≤ were set here for values at or beyond the usual limits of such assays
HLA-A*03:01 [2] = assay: as above
HLA-A*02:01 [3] = assay: IEDB peptide-MHC binding, purified MHC/competitive/fluorescence; ≥ and ≤ were set here for values at or beyond the usual limits of such assays
HLA-A*03:01 [4] = assay: as above
HLA-A*11:01 [5] = assay: as above
HLA-A*69:01 [6] = assay: IEDB peptide-MHC binding, purified MHC/direct/fluorescence; filed as Kd, often an IC50 or EC50 that approximates it; ≥ and ≤ were set here for values at or beyond the usual limits of such assays
HLA-A*02:11 = assay: as above
HLA-A*02:03 = assay: as above; details: source organism: Mycobacterium tuberculosis F11
HLA-B*51:01 = assay: IEDB peptide-MHC binding, purified MHC/competitive/fluorescence; filed as Kd, often an IC50 or EC50 that approximates it; ≥ and ≤ were set here for values at or beyond the usual limits of such assays; details: source organism: Orthohantavirus tulaense
HLA-B*57:01 = assay: as above; details: source organism: Orthohantavirus tulaense
HLA-A*69:01 [7] = assay: as above; details: source organism: Orthohantavirus tulaense
HLA-A*26:01 [8] = assay: as above; details: source organism: Orthohantavirus tulaense
HLA-B*27:03 = assay: as above; details: source organism: Orthohantavirus tulaense
HLA-B*18:01 [9] = assay: as above; details: source organism: Orthohantavirus tulaense
HLA-A*02:01 [10] = assay: IEDB peptide-MHC binding, purified MHC/direct/fluorescence; filed as Kd, often an IC50 or EC50 that approximates it; ≥ and ≤ were set here for values at or beyond the usual limits of such assays
HLA-A*03:01 [11] = assay: as above
HLA-A*68:02 = assay: as above; details: source organism: Orthohantavirus tulaense
HLA-A*11:01 [12] = assay: as above
HLA-A*29:02 = assay: IEDB peptide-MHC binding, purified MHC/competitive/fluorescence; filed as Kd, often an IC50 or EC50 that approximates it; ≥ and ≤ were set here for values at or beyond the usual limits of such assays
HLA-A*01:01 [13] = assay: as above; details: source organism: Xenopus laevis
HLA-B*40:01 = assay: IEDB peptide-MHC binding, purified MHC/direct/fluorescence; filed as Kd, often an IC50 or EC50 that approximates it; ≥ and ≤ were set here for values at or beyond the usual limits of such assays
HLA-B*44:02 = assay: as above
HLA-B*18:01 [14] = assay: as above; details: source organism: Orthohantavirus hantanense
HLA-A*02:19 = assay: as above
HLA-A*02:12 = assay: as above
HLA-A*02:17 = assay: IEDB peptide-MHC binding, purified MHC/competitive/radioactivity; filed as Kd, often an IC50 or EC50 that approximates it; ≥ and ≤ were set here for values at or beyond the usual limits of such assays; details: source organism: Dengue virus 1 Singapore/S275/1990
HLA-B*48:01 = assay: IEDB peptide-MHC binding, purified MHC/direct/fluorescence; filed as Kd, often an IC50 or EC50 that approximates it; ≥ and ≤ were set here for values at or beyond the usual limits of such assays; details: source organism: West Nile virus
HLA-B*27:05 = assay: as above
HLA-A*24:02 = assay: IEDB peptide-MHC binding, purified MHC/competitive/fluorescence; ≥ and ≤ were set here for values at or beyond the usual limits of such assays
HLA-B*15:01 [15] = assay: as above; details: source organism: Zaire ebolavirus
HLA-B*08:01 = assay: IEDB peptide-MHC binding, purified MHC/direct/fluorescence; filed as Kd, often an IC50 or EC50 that approximates it; ≥ and ≤ were set here for values at or beyond the usual limits of such assays; details: source organism: Campylobacter jejuni
HLA-B*07:02 = assay: as above; details: source organism: Campylobacter jejuni
HLA-B*15:01 [16] = assay: as above; details: source organism: Campylobacter jejuni
HLA-B*58:01 = assay: as above; details: source organism: Campylobacter jejuni
HLA-A*31:01 [17] = assay: as above; details: source organism: Campylobacter jejuni
HLA-A*26:01 [18] = assay: as above; details: source organism: Campylobacter jejuni
HLA-A*24:03 = assay: as above; details: source organism: Campylobacter jejuni
HLA-A*01:01 [19] = assay: as above; details: source organism: Campylobacter jejuni
[20] = source organism: Escherichia coli
[21] = source organism: Zaire ebolavirus
[22] = source organism: Sudan ebolavirus
[23] = source organism: Influenza A virus (A/swine/Bakum/5/95(H1N1))
[24] = source organism: Orthohantavirus hantanense
[25] = source organism: Bacillus anthracis str. A0488
[26] = source organism: Dengue virus 2 Thailand/16681/84
[27] = source organism: Vaccinia virus
[28] = source organism: Influenza A virus
[29] = source organism: Escherichia coli O157:H7
[30] = source organism: Influenza A virus (A/quail/Hong Kong/FY298/00(H9N2))
[31] = source organism: Hantaanvirus CGRn93P8
[32] = source organism: Campylobacter jejuni

ALRGVAVGR
Kd (HLA-A*31:01 [1]; [20]): 0.0038 µM
Kd (HLA-A*03:01 [2]; [20]): 0.0097 µM

AMVTLRKER
IC50 (HLA-A*02:01 [3]; [21]): 30.3 µM
IC50 (HLA-A*03:01 [4]; [21]): 30.2 µM
IC50 (HLA-A*11:01 [5]; [21]): 29.6 µM

ASSRITKGR
IC50 (HLA-A*03:01 [4]; [22]): 11 µM
IC50 (HLA-A*11:01 [5]; [22]): 0.765 µM

ATTELRTFS
IC50 (HLA-A*02:01 [3]; [21]): ≥ 202 µM
IC50 (HLA-A*03:01 [4]; [21]): ≥ 123 µM
IC50 (HLA-A*11:01 [5]; [21]): 11.1 µM

DETSSLPPL
IC50 (HLA-A*03:01 [4]; [21]): ≥ 330 µM
IC50 (HLA-A*11:01 [5]; [21]): ≥ 73.1 µM

FLFGDDDAL
Kd (HLA-A*69:01 [6]; source organism: Mycobacterium tuberculosis): 2.11 µM
Kd (HLA-A*02:11; source organism: Mycobacterium tuberculosis F11): 0.003 µM
Kd (HLA-A*02:03): 0.002 µM

FMFNELLAL
Kd (HLA-B*51:01): ≥ 20 µM
Kd (HLA-B*57:01): ≥ 20 µM
Kd (HLA-A*69:01 [7]): ≥ 20 µM
Kd (HLA-A*26:01 [8]): ≥ 20 µM
Kd (HLA-B*27:03): ≥ 20 µM
Kd (HLA-B*18:01 [9]): ≥ 20 µM
Kd (HLA-A*02:01 [10]; source organism: Orthohantavirus puumalaense): 0.0002 µM
Kd (HLA-A*03:01 [11]; source organism: Orthohantavirus tulaense): ≥ 20 µM
Kd (HLA-A*68:02): ≥ 20 µM

GGQQKNSQK
IC50 (HLA-A*03:01 [4]; [21]): ≥ 119 µM
IC50 (HLA-A*11:01 [5]; [21]): 1.59 µM

GINDRNFWR
Kd (HLA-A*31:01 [1]; source organism: Influenza A virus (A/swine/Italy/1509-6/97(H1N1))): 0.00317 µM
Kd (HLA-A*03:01 [11]; [23]): 4.14 µM
Kd (HLA-A*11:01 [12]; [23]): 0.147 µM

GIWHGPYWH
Kd (HLA-A*29:02; source organism: Clostridium botulinum E3 str. Alaska E43): 0.231 µM

GSASPTPPY
Kd (HLA-A*29:02; source organism: Xenopus laevis): 0.0037 µM
Kd (HLA-A*01:01 [13]): 0.0427 µM

IEADIEHFL
Kd (HLA-B*40:01; [24]): 0.0012 µM
Kd (HLA-B*44:02; [24]): 7.67 µM
Kd (HLA-B*18:01 [14]): 0.0588 µM

IVNMGNPDY
Kd (HLA-A*29:02; source organism: Encephalitozoon cuniculi GB-M1): 0.0544 µM

KAENTNTSK
IC50 (HLA-A*03:01 [4]; [21]): ≥ 254 µM
IC50 (HLA-A*11:01 [5]; [21]): 35.4 µM

KAIDFLLRR
IC50 (HLA-A*02:01 [3]; [22]): ≥ 100 µM
IC50 (HLA-A*03:01 [4]; [22]): 5.75 µM
IC50 (HLA-A*11:01 [5]; [22]): 2.74 µM

KLSSMAAER
Kd (HLA-A*31:01 [1]; [25]): 0.016 µM
Kd (HLA-A*03:01 [2]; [25]): 0.088 µM

KMDIGVPLL
Kd (HLA-A*02:19; [26]): 0.016 µM
Kd (HLA-A*02:12; [26]): 0.004 µM
Kd (HLA-A*69:01 [6]; source organism: Dengue virus 1 Singapore/S275/1990): ≥ 20 µM
Kd (HLA-A*02:11; [26]): ≤ 0.001 µM
Kd (HLA-A*02:17): 1.25 µM

KNSPGMVPL
IC50 (HLA-A*02:01 [3]; [22]): ≥ 100 µM
IC50 (HLA-A*03:01 [4]; [22]): ≥ 201 µM
IC50 (HLA-A*11:01 [5]; [22]): 22.4 µM

KRVQEVKGY
Kd (HLA-B*48:01): ≥ 20 µM
Kd (HLA-B*27:05; source organism: West Nile virus): 0.782 µM

KSSKYYIKN
IC50 (HLA-A*24:02; [27]): ≥ 1410 µM
IC50 (HLA-A*03:01 [4]; [27]): ≥ 1830 µM

KVQRQIQVH
IC50 (HLA-A*24:02; [21]): 15.4 µM
IC50 (HLA-B*15:01 [15]): 45.2 µM
IC50 (HLA-A*02:01 [3]; [21]): ≥ 214 µM
IC50 (HLA-A*03:01 [4]; [21]): 17.6 µM
IC50 (HLA-A*11:01 [5]; [21]): 15.8 µM

LIAPRGYFK
Kd (HLA-A*31:01 [1]; [28]): 0.0339 µM
Kd (HLA-A*03:01 [2]; [28]): 0.0107 µM

LTYVQLESR
IC50 (HLA-A*03:01 [4]; [21]): 8.66 µM
IC50 (HLA-A*11:01 [5]; [21]): 1.63 µM

MLRLWWIPY
Kd (HLA-A*31:01 [1]; source organism: Escherichia coli HS): ≥ 20 µM
Kd (HLA-A*03:01 [11]; [29]): 10.1 µM
Kd (HLA-A*11:01 [12]; [29]): ≥ 20 µM

NPGTYVYFY
IC50 (HLA-A*24:02; source organism: Variola virus): 54.9 µM
IC50 (HLA-A*03:01 [4]; source organism: Variola virus): ≥ 424 µM
IC50 (HLA-A*11:01 [5]; source organism: Variola virus): 38.7 µM

NTMTKDAER
Kd (HLA-A*31:01 [1]; source organism: Influenza A virus (A/Fort Monmouth/1/1947-mouse adapted(H1N1))): 0.108 µM
Kd (HLA-A*03:01 [11]; [30]): ≥ 20 µM
Kd (HLA-A*11:01 [12]; [30]): ≥ 20 µM

QMISPVMSV
Kd (HLA-A*02:19; [31]): 0.007 µM
Kd (HLA-A*02:12; [31]): 0.003 µM
Kd (HLA-A*69:01 [6]; [24]): 0.0012 µM
Kd (HLA-A*02:01 [10]; [24]): ≤ 0.001 µM
Kd (HLA-A*02:11; [31]): ≤ 0.001 µM

RVDGLELKK
Kd (HLA-A*31:01 [1]; source organism: Yellow fever virus): ≥ 20 µM
Kd (HLA-A*11:01 [12]; source organism: Yellow fever virus 17D): 0.0188 µM

VFKVKLHEI
Kd (HLA-B*08:01): 0.391 µM
Kd (HLA-B*07:02): ≥ 20 µM
Kd (HLA-B*15:01 [16]): ≥ 20 µM
Kd (HLA-B*40:01; [32]): ≥ 20 µM
Kd (HLA-B*58:01): ≥ 20 µM
Kd (HLA-A*31:01 [17]): ≥ 20 µM
Kd (HLA-A*69:01 [6]; [32]): ≥ 20 µM
Kd (HLA-A*02:01 [10]; [32]): 18.5 µM
Kd (HLA-A*26:01 [18]): ≥ 20 µM
Kd (HLA-A*03:01 [11]; [32]): ≥ 20 µM
Kd (HLA-A*11:01 [12]; [32]): ≥ 20 µM
Kd (HLA-B*27:05; [32]): ≥ 20 µM
Kd (HLA-A*24:03): 0.0923 µM
Kd (HLA-A*01:01 [19]): ≥ 20 µM
Kd (HLA-B*44:02; [32]): ≥ 20 µM

VGGDIRTLY
Kd (HLA-A*29:02; source organism: Coxiella burnetii RSA 331): 0.0686 µM
